For this assay, the target named is T1, rabbit calcitonin receptor (rabbit, UniProt P79222 23-474).
T1 sequence (looked up): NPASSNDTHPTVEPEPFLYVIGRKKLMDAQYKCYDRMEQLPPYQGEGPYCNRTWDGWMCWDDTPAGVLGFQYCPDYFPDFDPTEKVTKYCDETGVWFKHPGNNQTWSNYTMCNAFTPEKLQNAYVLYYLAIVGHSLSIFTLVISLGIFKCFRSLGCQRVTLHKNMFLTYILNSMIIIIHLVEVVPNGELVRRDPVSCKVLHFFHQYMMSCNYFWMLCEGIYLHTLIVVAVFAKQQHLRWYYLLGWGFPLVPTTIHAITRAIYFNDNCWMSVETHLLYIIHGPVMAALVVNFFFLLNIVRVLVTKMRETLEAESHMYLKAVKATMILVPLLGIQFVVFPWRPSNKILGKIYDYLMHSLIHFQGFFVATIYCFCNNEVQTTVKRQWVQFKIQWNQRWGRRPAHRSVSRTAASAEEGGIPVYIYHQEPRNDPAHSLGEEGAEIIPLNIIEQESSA
As to the kind of experiment: radioligand binding.

Ends that are not written are not given here.

Broadly, the Ki is a dissociation constant, usually derived from enzyme kinetics or from competition with a known ligand.

B1: human calcitonin (ligand, UniProt P01258 85-116, looked up)
chain: CGNLSTCMLGTYTQDFNKFHTFPQTAIGVGAP
modifications: ends and bridges not checked; cysteine pairing not given here
For B1, the Ki is 0.61 nM.

The record behind these values is article PMC2926129 (Regulatory peptides, 2010).
